Results from patent publication US11161912B2, “Heparanase-neutralizing monoclonal antibodies” (Technion Research & Development Foundation Limited, priority 2015, dated 2021).

Test system: ESb mouse T-lymphoma cells
Experiment: ESb T-lymphoma spontaneous liver metastasis and survival
Format: in vivo
Conditions: ESb, mAb 500 μg/mouse every other day, 3 weeks
Description: Lymphoma cells were also inoculated subcutaneously at the right flank of 6-weeks-old NOD/SCID mice (human cell lines) or C57BL/6 mice (E1-4 mouse lymphoma cells) (n=7). Mice were treated with heparanase inhibitors (PG545; SST0001) or neutralizing antibodies and xenografts size was determined by externally measuring the tumors in 2 dimensions using a caliper. At the end of the experiment, mice were sacrificed; tumor xenografts were removed, weighed and fixed for histological and immunohistochemical analyses (Weissmann et al, 2016, Proc Natl Acad Sci USA 113:704-709). ESb mouse T-lymphoma cells (5×10^5) were similarly inoculated subcutaneously into SCID mice and spontaneous metastasis to the liver (Vlodaysky et al., 1983, Cancer Res 43:2704-2711) was examined after 3 weeks of treatment with PG545 or the neutralizing mAb, as described above. All animal experiments were approved by the Animal Care Committee of the Technion, Haifa, Israel.
FIG. 3A. HEK 293 cells were incubated with latent 65 kDa (upper panel) or GS3 constitutively active heparanase (1 μg/ml; third panel) and the indicated mAbs (10 μg/ml). The cell medium was aspirated at the time designated and cell lysates were subjected to immunoblotting applying anti-heparanase antibody (upper and third panels). […] Heparanase-transfected 293 cells were grown with control mouse IgM or mAb 9E8 for two days. Cells were then fixed with methanol and subjected to immunofluorescent staining applying anti heparanase antibody (second panel) or lysed and subjected to immunoblotting applying anti-heparanase antibody (fourth panel). Purified recombinant active heparanase (200 ng) was pre-incubated with control mouse IgM ( ? ), mAb 8A5 ( ? ), mAb 9E8 ( ? ), all at 2 μg/ml, for 2 h in serum-free RPMI medium on ice. The mixture was then applied onto ^35S-labeled ECM-coated dishes and heparanase activity was determined as described above (lower panel). FIG. 3B, C. […] Quantification of the extent of CD45 staining is shown graphically in the lower panel. […]

B1: mAb 9E8: monoclonal IgM raised against KKDC peptide (Lys158-Asn171) of heparanase; VH SEQ ID NO: 7, VL SEQ ID NO: 8 (antibody)
VH: EVKLLESGGGLVQPGGSLKLSCAASGFDFSRYWMSWVRQAPGKGLEWIGEINPDSSTINYTPSLKDKFIISRDNAKNTLYLQMSKVRSEDTALYYCARRGYEGNYAMDYWGQGTSVTVSSESQSFPNVFPLVSCESPLSDKNLVAMGCLAR
VL: DIVMTQAAPSVPVTPGESVSISCRSSKSLLHSNGNTYLYWFLQRPGQSPQLLIYRMSNLASGVPDRFSGSGSGTAFTLRISRVEAEDVGVYYCMQHLEYPFTFGSGTKLEIKRADAAPTVSIFPPSSEQLTSGGASVVCFL
modifications: IgM constant regions
  inhibition of liver metastasis (CD45 staining): 4-5 fold
